Source: patent publication US5864018
Blank lines part the entries; values can stand above or below the substance they belong to.

Legend:
[1] = molecular target: human recombinant soluble RAGE/flag fusion protein (human); assay: excess native BSA against 125I-AGE-BSA binding to immobilized RAGE, Exp. 3
[2] = molecular target: human recombinant soluble RAGE/flag fusion protein (human); assay: excess native BSA against 125I-AGE-BSA binding to immobilized RAGE, Exp. 2
[3] = molecular target: AGE-BSA (bovine) (UniProt P02769); assay: excess free RAGE/DCC chimera against 125I-AGE-BSA binding to immobilized RAGE, Exp. 1
[4] = molecular target: human recombinant soluble RAGE/flag fusion protein (human); assay: excess lactoferrin against 125I-AGE-BSA binding to immobilized RAGE, Exp. 2; the filing leaves open whether lactoferrin acts through RAGE or AGE

% Binding [1]: > 100%
% Binding [2]: > 100%
Substance: native BSA (from UniProt P02769)

% Binding [3]: 40%
Substance: recombinant soluble RAGE/DCC chimeric protein (receptor)

% Binding [4]: 50%
Substance: lactoferrin (ligand)
